# In FireProtDB (doi:10.1021/bi201411c):
# B1: Cyanovirin-N, P81180 (parent)
# chain: LGKFSQTCYNSAIQGSVLTSTCERTNGGYNTSSIDLNSVIENVDGSLKWQPSNFIETCRNTQLAGSSELAAECKTRAQQFVSTKINLDDHIANIDGTLKYE
# Variants of: B1
# Conditions: Nostoc ellipsosporum, pH 6, sodium phosphate 20 mM, transition: 2, reversible: yes(90%), structure 1IIY, whole UniProt chain shown; for denaturant m value / denaturant midpoint (higher = more stable): 25 °C, GdnHCl; for Tm / change of melting temperature, mutant - wild type (higher = more stable): Thermal
Variant,denaturant m value (CD) [kcal/mol/M],denaturant midpoint (higher = more stable) (CD) [M],denaturant m value (fluorescence) [kcal/mol/M],denaturant midpoint (higher = more stable) (fluorescence) [M],Tm (CD) [°C],"change of melting temperature, mutant - wild type (higher = more stable) (CD) [°C]"
LGKFSQTCYNAAIQGSVLTATCERTNGGYNTSSIDLNSVIENVDGSLKWQGSNFIETCRNIQLAGSSELAAECKTRAQQFVSTKINLDDHIANIDGTLKYE [P51G S11A S20A T61I],1.7,3.3,2.1,3.5,75.8,9.2
LGKFSQTCYNAAIQGSVLTATCERTNGGYNTSSIDLNSVIENVDGSLKWQGSNFIETCRNTQLAGSSELAAECKTRAQQFVSTKINLDDHIANIDGTLKYE [P51G S11A S20A],2.4,2.5,–,–,69.6,3
LGKFSQTCYNSAIQGSVLTSTCERTNGGYNTSSIDLNSVIENVDGSLKWQGSNFIETCRNTQLAGSSELAAECKTRAQQFVSTKINLDDHIANIDGTLKYE [P51G],2.5,2.2,2.6,2.3,64.3,-2.3
LGKFSQTCYNVAIQGSVLTATCERTNGGYNTSSIDLNSVIENVDGSLKWQGSNFIETCRNVQLAGSSELAAECKTRAQQFVSTKINLDDHIANIDGTLKYE [P51G S11V S20A T61V],1.7,2.9,2.1,3,74.5,7.9
LGKFSQTCYNVAIQGSVLTATCERTNGGYNTSSIDLNSVIENVDGSLKWQGSNFIETCRNTQLAGSSELAAECKTRAQQFVSTKINLDDHIANIDGTLKYE [P51G S11V S20A],2.6,2.8,2.6,2.8,69.8,3.2
LGKFSQTCYNIAIQGSVLTATCERTNGGYNTSSIDLNSVIENVDGSLKWQGSNFIETCRNTQLAGSSELAAECKTRAQQFVSTKINLDDHIANIDGTLKYE [P51G S11I S20A],2,3.1,–,–,–,–
